Fold change of affinity data for 20 molecules are collected here from US20210388087A1.

B1: dBBDu183H T100bG / dBBDu072L (antibody, name in Kabat numbering, V domains shown)
VH: QVQLVESGGGLVQPGRSLRLSCAASGFTFSNAWMHWVRQAPGKGLEWVAQIKDKGNAYAAYYAPSVKGRFTISRDDSKNSIYLQMNSLKTEDTAVYYCHYVHYASASGVLPAFGVDAWGQGTTVTVSS
VL: DIVMTQSPLSLPVTPGEPASISCQASQELVHMNRNTYLHWYQQKPGQAPRLLIYKVSNRFPGVPDRFSGSGSGTDFTLKISRVEAEDVGVYYCAQGTSVPFTFGQGTKLEIK
B2: dBBDu183H L100dG / dBBDu072L (antibody, name in Kabat numbering, V domains shown)
VH: QVQLVESGGGLVQPGRSLRLSCAASGFTFSNAWMHWVRQAPGKGLEWVAQIKDKGNAYAAYYAPSVKGRFTISRDDSKNSIYLQMNSLKTEDTAVYYCHYVHYASASTVGPAFGVDAWGQGTTVTVSS
VL: DIVMTQSPLSLPVTPGEPASISCQASQELVHMNRNTYLHWYQQKPGQAPRLLIYKVSNRFPGVPDRFSGSGSGTDFTLKISRVEAEDVGVYYCAQGTSVPFTFGQGTKLEIK
B3: dBBDu183H V95N / dBBDu072L (antibody, name in Kabat numbering, V domains shown)
VH: QVQLVESGGGLVQPGRSLRLSCAASGFTFSNAWMHWVRQAPGKGLEWVAQIKDKGNAYAAYYAPSVKGRFTISRDDSKNSIYLQMNSLKTEDTAVYYCHYNHYASASTVLPAFGVDAWGQGTTVTVSS
VL: DIVMTQSPLSLPVTPGEPASISCQASQELVHMNRNTYLHWYQQKPGQAPRLLIYKVSNRFPGVPDRFSGSGSGTDFTLKISRVEAEDVGVYYCAQGTSVPFTFGQGTKLEIK
B4: dBBDu183H V100iN / dBBDu072L (antibody, name in Kabat numbering, V domains shown)
VH: QVQLVESGGGLVQPGRSLRLSCAASGFTFSNAWMHWVRQAPGKGLEWVAQIKDKGNAYAAYYAPSVKGRFTISRDDSKNSIYLQMNSLKTEDTAVYYCHYVHYASASTVLPAFGNDAWGQGTTVTVSS
VL: DIVMTQSPLSLPVTPGEPASISCQASQELVHMNRNTYLHWYQQKPGQAPRLLIYKVSNRFPGVPDRFSGSGSGTDFTLKISRVEAEDVGVYYCAQGTSVPFTFGQGTKLEIK
B5: dBBDu183H A102N / dBBDu072L (antibody, name in Kabat numbering, V domains shown)
VH: QVQLVESGGGLVQPGRSLRLSCAASGFTFSNAWMHWVRQAPGKGLEWVAQIKDKGNAYAAYYAPSVKGRFTISRDDSKNSIYLQMNSLKTEDTAVYYCHYVHYASASTVLPAFGVDNWGQGTTVTVSS
VL: DIVMTQSPLSLPVTPGEPASISCQASQELVHMNRNTYLHWYQQKPGQAPRLLIYKVSNRFPGVPDRFSGSGSGTDFTLKISRVEAEDVGVYYCAQGTSVPFTFGQGTKLEIK
B6: dBBDu183H V100cG / dBBDu072L (antibody, name in Kabat numbering, V domains shown)
VH: QVQLVESGGGLVQPGRSLRLSCAASGFTFSNAWMHWVRQAPGKGLEWVAQIKDKGNAYAAYYAPSVKGRFTISRDDSKNSIYLQMNSLKTEDTAVYYCHYVHYASASTGLPAFGVDAWGQGTTVTVSS
VL: DIVMTQSPLSLPVTPGEPASISCQASQELVHMNRNTYLHWYQQKPGQAPRLLIYKVSNRFPGVPDRFSGSGSGTDFTLKISRVEAEDVGVYYCAQGTSVPFTFGQGTKLEIK
B7: dBBDu183H H96N / dBBDu072L (antibody, name in Kabat numbering, V domains shown)
VH: QVQLVESGGGLVQPGRSLRLSCAASGFTFSNAWMHWVRQAPGKGLEWVAQIKDKGNAYAAYYAPSVKGRFTISRDDSKNSIYLQMNSLKTEDTAVYYCHYVNYASASTVLPAFGVDAWGQGTTVTVSS
VL: DIVMTQSPLSLPVTPGEPASISCQASQELVHMNRNTYLHWYQQKPGQAPRLLIYKVSNRFPGVPDRFSGSGSGTDFTLKISRVEAEDVGVYYCAQGTSVPFTFGQGTKLEIK
B8: dBBDu183H S100aN / dBBDu072L (antibody, name in Kabat numbering, V domains shown)
VH: QVQLVESGGGLVQPGRSLRLSCAASGFTFSNAWMHWVRQAPGKGLEWVAQIKDKGNAYAAYYAPSVKGRFTISRDDSKNSIYLQMNSLKTEDTAVYYCHYVHYASANTVLPAFGVDAWGQGTTVTVSS
VL: DIVMTQSPLSLPVTPGEPASISCQASQELVHMNRNTYLHWYQQKPGQAPRLLIYKVSNRFPGVPDRFSGSGSGTDFTLKISRVEAEDVGVYYCAQGTSVPFTFGQGTKLEIK
B9: dBBDu183H L100dN / dBBDu072L (antibody, name in Kabat numbering, V domains shown)
VH: QVQLVESGGGLVQPGRSLRLSCAASGFTFSNAWMHWVRQAPGKGLEWVAQIKDKGNAYAAYYAPSVKGRFTISRDDSKNSIYLQMNSLKTEDTAVYYCHYVHYASASTVNPAFGVDAWGQGTTVTVSS
VL: DIVMTQSPLSLPVTPGEPASISCQASQELVHMNRNTYLHWYQQKPGQAPRLLIYKVSNRFPGVPDRFSGSGSGTDFTLKISRVEAEDVGVYYCAQGTSVPFTFGQGTKLEIK
B10: dBBDu183H A100fN / dBBDu072L (antibody, name in Kabat numbering, V domains shown)
VH: QVQLVESGGGLVQPGRSLRLSCAASGFTFSNAWMHWVRQAPGKGLEWVAQIKDKGNAYAAYYAPSVKGRFTISRDDSKNSIYLQMNSLKTEDTAVYYCHYVHYASASTVLPNFGVDAWGQGTTVTVSS
VL: DIVMTQSPLSLPVTPGEPASISCQASQELVHMNRNTYLHWYQQKPGQAPRLLIYKVSNRFPGVPDRFSGSGSGTDFTLKISRVEAEDVGVYYCAQGTSVPFTFGQGTKLEIK
B11: dBBDu183H D101G / dBBDu072L (antibody, name in Kabat numbering, V domains shown)
VH: QVQLVESGGGLVQPGRSLRLSCAASGFTFSNAWMHWVRQAPGKGLEWVAQIKDKGNAYAAYYAPSVKGRFTISRDDSKNSIYLQMNSLKTEDTAVYYCHYVHYASASTVLPAFGVGAWGQGTTVTVSS
VL: DIVMTQSPLSLPVTPGEPASISCQASQELVHMNRNTYLHWYQQKPGQAPRLLIYKVSNRFPGVPDRFSGSGSGTDFTLKISRVEAEDVGVYYCAQGTSVPFTFGQGTKLEIK
B12: dBBDu183H V100iG / dBBDu072L (antibody, name in Kabat numbering, V domains shown)
VH: QVQLVESGGGLVQPGRSLRLSCAASGFTFSNAWMHWVRQAPGKGLEWVAQIKDKGNAYAAYYAPSVKGRFTISRDDSKNSIYLQMNSLKTEDTAVYYCHYVHYASASTVLPAFGGDAWGQGTTVTVSS
VL: DIVMTQSPLSLPVTPGEPASISCQASQELVHMNRNTYLHWYQQKPGQAPRLLIYKVSNRFPGVPDRFSGSGSGTDFTLKISRVEAEDVGVYYCAQGTSVPFTFGQGTKLEIK
B13: dBBDu183H F100gN / dBBDu072L (antibody, name in Kabat numbering, V domains shown)
VH: QVQLVESGGGLVQPGRSLRLSCAASGFTFSNAWMHWVRQAPGKGLEWVAQIKDKGNAYAAYYAPSVKGRFTISRDDSKNSIYLQMNSLKTEDTAVYYCHYVHYASASTVLPANGVDAWGQGTTVTVSS
VL: DIVMTQSPLSLPVTPGEPASISCQASQELVHMNRNTYLHWYQQKPGQAPRLLIYKVSNRFPGVPDRFSGSGSGTDFTLKISRVEAEDVGVYYCAQGTSVPFTFGQGTKLEIK
B14: dBBDu183H S99N / dBBDu072L (antibody, name in Kabat numbering, V domains shown)
VH: QVQLVESGGGLVQPGRSLRLSCAASGFTFSNAWMHWVRQAPGKGLEWVAQIKDKGNAYAAYYAPSVKGRFTISRDDSKNSIYLQMNSLKTEDTAVYYCHYVHYANASTVLPAFGVDAWGQGTTVTVSS
VL: DIVMTQSPLSLPVTPGEPASISCQASQELVHMNRNTYLHWYQQKPGQAPRLLIYKVSNRFPGVPDRFSGSGSGTDFTLKISRVEAEDVGVYYCAQGTSVPFTFGQGTKLEIK
B15: dBBDu183H V100cN / dBBDu072L (antibody, name in Kabat numbering, V domains shown)
VH: QVQLVESGGGLVQPGRSLRLSCAASGFTFSNAWMHWVRQAPGKGLEWVAQIKDKGNAYAAYYAPSVKGRFTISRDDSKNSIYLQMNSLKTEDTAVYYCHYVHYASASTNLPAFGVDAWGQGTTVTVSS
VL: DIVMTQSPLSLPVTPGEPASISCQASQELVHMNRNTYLHWYQQKPGQAPRLLIYKVSNRFPGVPDRFSGSGSGTDFTLKISRVEAEDVGVYYCAQGTSVPFTFGQGTKLEIK
B16: dBBDu183H Y97N / dBBDu072L (antibody, name in Kabat numbering, V domains shown)
VH: QVQLVESGGGLVQPGRSLRLSCAASGFTFSNAWMHWVRQAPGKGLEWVAQIKDKGNAYAAYYAPSVKGRFTISRDDSKNSIYLQMNSLKTEDTAVYYCHYVHNASASTVLPAFGVDAWGQGTTVTVSS
VL: DIVMTQSPLSLPVTPGEPASISCQASQELVHMNRNTYLHWYQQKPGQAPRLLIYKVSNRFPGVPDRFSGSGSGTDFTLKISRVEAEDVGVYYCAQGTSVPFTFGQGTKLEIK
B17: dBBDu183H A98N / dBBDu072L (antibody, name in Kabat numbering, V domains shown)
VH: QVQLVESGGGLVQPGRSLRLSCAASGFTFSNAWMHWVRQAPGKGLEWVAQIKDKGNAYAAYYAPSVKGRFTISRDDSKNSIYLQMNSLKTEDTAVYYCHYVHYNSASTVLPAFGVDAWGQGTTVTVSS
VL: DIVMTQSPLSLPVTPGEPASISCQASQELVHMNRNTYLHWYQQKPGQAPRLLIYKVSNRFPGVPDRFSGSGSGTDFTLKISRVEAEDVGVYYCAQGTSVPFTFGQGTKLEIK
B18: dBBDu183H F100gG / dBBDu072L (antibody, name in Kabat numbering, V domains shown)
VH: QVQLVESGGGLVQPGRSLRLSCAASGFTFSNAWMHWVRQAPGKGLEWVAQIKDKGNAYAAYYAPSVKGRFTISRDDSKNSIYLQMNSLKTEDTAVYYCHYVHYASASTVLPAGGVDAWGQGTTVTVSS
VL: DIVMTQSPLSLPVTPGEPASISCQASQELVHMNRNTYLHWYQQKPGQAPRLLIYKVSNRFPGVPDRFSGSGSGTDFTLKISRVEAEDVGVYYCAQGTSVPFTFGQGTKLEIK
B19: dBBDu183H H93Q / dBBDu072L (antibody, name in Kabat numbering, V domains shown)
VH: QVQLVESGGGLVQPGRSLRLSCAASGFTFSNAWMHWVRQAPGKGLEWVAQIKDKGNAYAAYYAPSVKGRFTISRDDSKNSIYLQMNSLKTEDTAVYYCQYVHYASASTVLPAFGVDAWGQGTTVTVSS
VL: DIVMTQSPLSLPVTPGEPASISCQASQELVHMNRNTYLHWYQQKPGQAPRLLIYKVSNRFPGVPDRFSGSGSGTDFTLKISRVEAEDVGVYYCAQGTSVPFTFGQGTKLEIK
B20: dBBDu183H G100hN / dBBDu072L (antibody, name in Kabat numbering, V domains shown)
VH: QVQLVESGGGLVQPGRSLRLSCAASGFTFSNAWMHWVRQAPGKGLEWVAQIKDKGNAYAAYYAPSVKGRFTISRDDSKNSIYLQMNSLKTEDTAVYYCHYVHYASASTVLPAFNVDAWGQGTTVTVSS
VL: DIVMTQSPLSLPVTPGEPASISCQASQELVHMNRNTYLHWYQQKPGQAPRLLIYKVSNRFPGVPDRFSGSGSGTDFTLKISRVEAEDVGVYYCAQGTSVPFTFGQGTKLEIK

Sequence of Human CD137 ECD (human) (chain, as listed by the source limits assumed): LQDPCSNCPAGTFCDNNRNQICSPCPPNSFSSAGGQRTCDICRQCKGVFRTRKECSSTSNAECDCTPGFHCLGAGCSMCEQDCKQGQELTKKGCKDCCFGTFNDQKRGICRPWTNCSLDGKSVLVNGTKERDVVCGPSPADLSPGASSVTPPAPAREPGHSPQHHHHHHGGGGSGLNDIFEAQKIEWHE

This assay addresses Human CD137 ECD (human). Put plainly: SPR, vs parent H183/L072.
In the case of B1, the fold change of affinity is 0 fold.

With B2, the fold change of affinity was found to be 0 fold.

In the case of B3, the fold change of affinity turned out to be 0 fold.

In the case of B4, the fold change of affinity was 0 fold.

Consider B5, for which the fold change of affinity came to 0 fold.

For the molecule B6, the fold change of affinity stood at 0 fold.

On to B7, for which the fold change of affinity was found to be 0 fold.

As to B8, the fold change of affinity stood at 0 fold.

On to B9, for which the fold change of affinity was 0 fold.

For B10, the fold change of affinity came to 0 fold.

B11: the fold change of affinity turned out to be 0 fold.

For the molecule B12, the fold change of affinity was 0 fold.

With B13, the fold change of affinity is 0 fold.

With B14, the fold change of affinity worked out at 0 fold.

B15: the fold change of affinity worked out at 0 fold.

Turning to B16, the fold change of affinity was found to be 0 fold.

As to B17, the fold change of affinity turned out to be 0 fold.

Regarding B18, the fold change of affinity came to 0 fold.

B19: the fold change of affinity worked out at 0 fold.

For the molecule B20, the fold change of affinity was determined as 0 fold.
